One test has as its target WT JR-FL gp120 (HIV-1). Nature of the test: ELISA, antigen-coated wells.
Test [1] addresses HIV-1 Env of pseudovirus isolate MGRM-G-011 (HIV-1). Kind of test: cell-based or functional assay.
Test [2] has as its target HIV-1 Env of pseudovirus isolate MGRM-G-004 (HIV-1). Kind of test: cell-based or functional assay.
Test [3] deals with HIV-1 Env of pseudovirus isolate MGRM-G-001 (HIV-1). Kind of test: cell-based or functional assay.
Test [4] deals with HIV-1 Env of pseudovirus isolate MGRM-G-015 (HIV-1). Kind of test: cell-based or functional assay.
Test [5] has as its target HIV-1 Env of pseudovirus isolate MGRM-G-017 (HIV-1). Kind of test: cell-based or functional assay.
Test [6] has as its target HIV-1 Env of pseudovirus isolate MGRM-G-016 (HIV-1). Kind of test: cell-based or functional assay.
Test [7] deals with HIV-1 Env of pseudovirus isolate MGRM-G-027 (HIV-1). Kind of test: cell-based or functional assay.
Test [8] deals with HIV-1 Env of pseudovirus isolate MGRM-G-013 (HIV-1). Kind of test: cell-based or functional assay.
The target of test [9] is HIV-1 Env of pseudovirus isolate MGRM-G-006 (HIV-1). Nature of the test: cell-based or functional assay.
The target of test [10] is envelope of aMLV pseudovirus (negative control). Kind of test: cell-based or functional assay.
Test [11] addresses HIV-1 Env of pseudovirus isolate MGRM-G-009 (HIV-1). Nature of the test: cell-based or functional assay.
For test [12], the target named is HIV-1 Env of pseudovirus isolate MGRM-G-019 (HIV-1). Nature of the test: cell-based or functional assay.
Test [13] concerns the target HIV-1 Env of pseudovirus isolate MGRM-G-014 (HIV-1). Kind of test: cell-based or functional assay.
For test [14], the target named is HIV-1 Env of isolate MGRM-C-008 (HIV-1). Kind of test: cell-based or functional assay.
In test [15] the target is HIV-1 Env of isolate MGRM-C-024 (HIV-1). Nature of the test: cell-based or functional assay.
The target in test [16] is HIV-1 Env of isolate MGRM-C-019 (HIV-1). Kind of test: cell-based or functional assay.
The target of test [17] is HIV-1 Env of isolate MGRM-C-025 (HIV-1). Nature of the test: cell-based or functional assay.
For test [18], the target named is HIV-1 Env of isolate MGRM-C-006 (HIV-1). Kind of test: cell-based or functional assay.
Test [19] concerns the target HIV-1 Env of isolate MGRM-C-015 (HIV-1). Nature of the test: cell-based or functional assay.
In test [20] the target is HIV-1 Env of isolate MGRM-C-023 (HIV-1). Nature of the test: cell-based or functional assay.
Test [21] concerns the target HIV-1 Env of isolate MGRM-C-017 (HIV-1). Kind of test: cell-based or functional assay.
Test [22] concerns the target HIV-1 Env of isolate MGRM-C-007 (HIV-1). Kind of test: cell-based or functional assay.
For test [23], the target named is HIV-1 Env of isolate MGRM-C-020 (HIV-1). Kind of test: cell-based or functional assay.
For test [24], the target named is HIV-1 Env of isolate MGRM-C-013 (HIV-1). Nature of the test: cell-based or functional assay.
Test [25] has as its target HIV-1 Env of isolate MGRM-C-010 (HIV-1). Kind of test: cell-based or functional assay.
The target in test [26] is HIV-1 Env of isolate MGRM-C-005 (HIV-1). Kind of test: cell-based or functional assay.
Test [27] has as its target HIV-1 Env of isolate MGRM-C-022 (HIV-1). Nature of the test: cell-based or functional assay.
Test [28] deals with HIV-1 Env of isolate MGRM-C-001 (HIV-1). Kind of test: cell-based or functional assay.
The target in test [29] is HIV-1 Env of isolate MGRM-C-009 (HIV-1). Nature of the test: cell-based or functional assay.
The target in test [30] is HIV-1 Env of isolate MGRM-C-002 (HIV-1). Kind of test: cell-based or functional assay.
For test [31], the target named is HIV-1 Env of isolate MGRM-C-014 (HIV-1). Kind of test: cell-based or functional assay.
For test [32], the target named is HIV-1 Env of isolate MGRM-C-012 (HIV-1). Kind of test: cell-based or functional assay.
Test [33] deals with HIV-1 Env of isolate MGRM-C-004 (HIV-1). Kind of test: cell-based or functional assay.
The target in test [34] is HIV-1 CMU02 Env (pseudovirus) (HIV-1). Nature of the test: cell-based or functional assay.
For test [35], the target named is HIV-1 JRCSF Env (pseudovirus) (HIV-1) (UniProt P20871). Kind of test: cell-based or functional assay.
For test [36], the target named is HIV-1 92UG024 Env (pseudovirus) (HIV-1). Nature of the test: cell-based or functional assay.
Test [37] has as its target HIV-1 93IN905 Env (pseudovirus) (HIV-1). Kind of test: cell-based or functional assay.
Test [38] concerns the target HIV-1 MGRM-C-026 Env (pseudovirus) (HIV-1). Kind of test: cell-based or functional assay.
Test [39] has as its target HIV-1 92RW020 Env (pseudovirus) (HIV-1). Kind of test: cell-based or functional assay.
Test [40] addresses HIV-1 NL43 Env (pseudovirus) (HIV-1). Kind of test: cell-based or functional assay.
The target of test [41] is HIV-1 MGRM-A-010 Env (pseudovirus) (HIV-1). Kind of test: cell-based or functional assay.
For test [42], the target named is HIV-1 94UG103 Env (pseudovirus) (HIV-1). Kind of test: cell-based or functional assay.
Test [43] addresses HIV-1 92UG005 Env (pseudovirus) (HIV-1). Kind of test: cell-based or functional assay.
Test [44] concerns the target HIV-1 MGRM-C-027 Env (pseudovirus) (HIV-1). Kind of test: cell-based or functional assay.
The target in test [45] is HIV-1 MGRM-D-018 Env (pseudovirus) (HIV-1). Nature of the test: cell-based or functional assay.
In test [46] the target is HIV-1 APV6 Env (pseudovirus) (HIV-1). Kind of test: cell-based or functional assay.
In test [47] the target is HIV-1 92TH021 Env (pseudovirus) (HIV-1). Kind of test: cell-based or functional assay.
For test [48], the target named is HIV-1 MGRM-C-028 Env (pseudovirus) (HIV-1). Kind of test: cell-based or functional assay.

5345_I01 (PGT-137) (antibody), sequence (VH): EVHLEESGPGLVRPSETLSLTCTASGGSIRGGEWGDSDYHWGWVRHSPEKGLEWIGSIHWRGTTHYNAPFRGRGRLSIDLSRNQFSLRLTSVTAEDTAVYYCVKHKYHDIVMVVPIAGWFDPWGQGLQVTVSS
5345_I01 (PGT-137) (antibody), sequence (VL): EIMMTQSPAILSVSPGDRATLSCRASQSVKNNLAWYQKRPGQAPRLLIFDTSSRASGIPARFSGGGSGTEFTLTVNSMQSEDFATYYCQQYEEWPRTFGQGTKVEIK

5136_H01 (PGT-131) (antibody) displayed a half-maximal effective concentration (EC50) with WT JR-FL gp120 (HIV-1) of 0.4 µg/mL. Also, the IC50 (µg/mL), pseudovirus neutralization was more than 50 µg/mL in test [1]; more than 50 µg/mL in test [2]; 0.404 µg/mL in test [3]; more than 50 µg/mL in test [4]; more than 50 µg/mL in test [5]; more than 50 µg/mL in test [6]. The IC50 (µg/mL), pseudovirus neutralization was 2.9 µg/mL in test [7]; more than 50 µg/mL in test [8]; more than 50 µg/mL in test [9]; more than 50 µg/mL in test [10]; more than 50 µg/mL in [11]; more than 50 µg/mL in [12]. The substance also yielded an IC50 (µg/mL), pseudovirus neutralization in [13] of 4.31 µg/mL.
Take b12 (antibody): the IC50 was 1.51 µg/mL in test [14]; more than 50 µg/mL in test [15]; more than 50 µg/mL in test [16]; more than 50 µg/mL in test [17]; more than 50 µg/mL in test [18]; 13.3 µg/mL in [19]. For the same substance, the IC50 was 13.9 µg/mL in test [20]; more than 50 µg/mL in test [21]; more than 50 µg/mL in [22]; more than 50 µg/mL in [23]; more than 50 µg/mL in [24]; more than 50 µg/mL in [25]. Further, the IC50 in test [26] was 2.66 µg/mL; in [27], more than 50 µg/mL; in test [28], more than 50 µg/mL; in test [29], more than 50 µg/mL; in test [30], more than 50 µg/mL; in [31], more than 50 µg/mL. The IC50 in test [32] was more than 50 µg/mL; in test [33], 5.46 µg/mL.
Consider 5343_B08 (PGT-135) (antibody), for which the concentration giving a half-maximal response (EC50) in the test with WT JR-FL gp120 (HIV-1) was 0.1 µg/mL. Further, the IC50 (µg/mL), pseudovirus neutralization in test [1] was more than 50 µg/mL; in [2], more than 50 µg/mL; in [3], 0.393 µg/mL; in test [4] it was more than 50 µg/mL; in test [5] it was 0.137 µg/mL; in test [6], more than 50 µg/mL. Further, the IC50 (µg/mL), pseudovirus neutralization in [7] is 0.062 µg/mL; in [8] it was more than 50 µg/mL; in [9], more than 50 µg/mL; in test [10] it was more than 50 µg/mL; in [11] it was more than 50 µg/mL; in test [12] it was 0.145 µg/mL. Moreover, the IC50 (µg/mL), pseudovirus neutralization in test [13] is more than 50 µg/mL. Besides, the IC50 (neutralizing activity, pseudovirus) in test [34] was more than 10 µg/mL; in [35], 0.113 µg/mL; in test [36] it was 0.0139 µg/mL; in test [37], 0.0183 µg/mL; in [38], 0.0123 µg/mL; in test [40], 6.79 µg/mL. Moreover, the IC50 (neutralizing activity, pseudovirus) was more than 10 µg/mL in test [41]; more than 10 µg/mL in test [42]; more than 10 µg/mL in test [43]; more than 10 µg/mL in [44]; 0.0433 µg/mL in test [45]; more than 10 µg/mL in test [46]. Besides, the IC50 (neutralizing activity, pseudovirus) in [47] was more than 10 µg/mL; in test [48], 2.16 µg/mL. In test [39], this substance returned a neutralization IC50 (pseudovirus) of 0.157 µg/mL.
In the test with WT JR-FL gp120 (HIV-1), 5345_I01 (PGT-137) (antibody) yielded an EC50 of 0.1 µg/mL. In addition, the IC50 (µg/mL), pseudovirus neutralization in test [1] was more than 50 µg/mL; in [2], more than 50 µg/mL; in [3], 41.7 µg/mL; in test [4], more than 50 µg/mL; in test [5], 34.9 µg/mL; in [6] it was more than 50 µg/mL. Besides, the IC50 (µg/mL), pseudovirus neutralization in test [7] is 0.228 µg/mL; in test [8], more than 50 µg/mL; in test [9] it was more than 50 µg/mL; in test [10], more than 50 µg/mL; in test [11], more than 50 µg/mL; in test [12], 0.126 µg/mL. Moreover, in test [13], the IC50 (µg/mL), pseudovirus neutralization is more than 50 µg/mL.
In the test with WT JR-FL gp120 (HIV-1), 5114_A19 (PGT-128) (antibody) registered an EC50 of 0.1 µg/mL. Further, the IC50 (µg/mL), pseudovirus neutralization is 8.21 µg/mL in test [1]; more than 50 µg/mL in test [2]; 0.019 µg/mL in [3]; more than 50 µg/mL in [4]; 0.319 µg/mL in test [5]; more than 50 µg/mL in [6]. Also, the IC50 (µg/mL), pseudovirus neutralization in [7] was 0.313 µg/mL; in test [8] it was 0.995 µg/mL; in [9] it was more than 50 µg/mL; in test [10], more than 50 µg/mL; in [11], more than 50 µg/mL; in [12], 0.01 µg/mL. The same substance gave an IC50 (µg/mL), pseudovirus neutralization in test [13] of 0.004 µg/mL.
For the substance 2F5 (antibody), the IC50 in test [14], in test [15], in [16], in [17], in test [18] and in test [19] was more than 50 µg/mL in each case. In addition, the IC50 in [20] was more than 50 µg/mL; in test [21], more than 50 µg/mL; in test [22], more than 50 µg/mL; in [23] it was more than 50 µg/mL; in [24] it was 18.4 µg/mL; in test [25], more than 50 µg/mL. Besides, the IC50 in [26] is more than 50 µg/mL; in [27], more than 50 µg/mL; in [28], more than 50 µg/mL; in test [29], more than 50 µg/mL; in test [30], 44.7 µg/mL; in test [31], more than 50 µg/mL. In addition, the half-inhibitory concentration (IC50) in test [32] and in test [33] was more than 50 µg/mL throughout.
Turning to 1495_C14 (PGC14) (antibody), the IC50 in test [14] was more than 50 µg/mL; in [15], more than 50 µg/mL; in test [16], 12 µg/mL; in test [17] it was more than 50 µg/mL; in test [18], more than 50 µg/mL; in [19], more than 50 µg/mL. Moreover, the IC50 in [20], in test [21], in [22], in [23], in test [24] and in test [25] was more than 50 µg/mL throughout. Also, the IC50 in test [26], in test [27], in [28], in test [29], in test [30] and in test [31] was more than 50 µg/mL throughout. In addition, the IC50 in test [32] and in test [33] was more than 50 µg/mL in each case.
